Values quoted from earlier work, collected in publication PMC7022251.

Biological target: Beclin-1 BH3 (UniProt Q14457)
Chain of UniProt Q14457 (Q14457 105-130): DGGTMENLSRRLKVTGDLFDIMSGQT

**Q.** For M11 (from UniProt P89884), which Kd is on record?
**A.** 40 nM
